Reference: the supplement of paper PMC9170038

System: MS2 coat protein
Experiment: apparent KD of MS2 coat protein; designed switch direction (-1 OFF switch, 1 ON switch): -1; higher = weaker reporter binding
How it was run: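 The buffer was Tris-HCl pH 7.5 with KCl, MgCl2, BSA, DTT, tRNA and Tween-20. In it, SNAP-549-labelled MS2 coat protein was titrated in doubling steps from 0.7 or 1.5 nM to 3 µM over chip-bound RNA switches transcribed by stalled E. coli RNA polymerase on Illumina chips. Apparent KD is the per-design median over clusters of curve fits to normalised fluorescence.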

[1] = Eterna round: R95, input ligand: microRNA oligo, concentration not stated
[2] = input ligand: microRNA oligo, concentration not stated
[3] = Eterna round: R95, input ligand: FMN 200 uM
[4] = Eterna round: R95, input ligand: none

Sequence	apparent KD of MS2 coat protein [1] [nM]	apparent KD of MS2 coat protein (input ligand: FMN 200 uM) [nM]	apparent KD of MS2 coat protein (input ligand: none) [nM]	other results
GACUGCUGAGGAUAUACAUGAGGAUCACCCAUGUGCUUCAGUAUCGAAAGAUACAUUGGUAGAAGGUGGUAGUC [LRO-Excl3-08] (puzzle: Exclusion 3)	14.9			
UCUCGUUGGCAAGGAUAUCCUACAUUGUUCUGGCCCGGGCAUGCUACAUGAGGAUCACCCAUGUGGGAGAAGGUGCGUCAUUGC [Design 23] (Eterna round: R96, puzzle: Exclusion NG 2)		146	140	apparent KD of MS2 coat protein [2]: 77.4 nM
CAAAGUUGGUAAGGAUAUCCUACAUUAUUCUGACCCGUGCAAGCUACAUGAGGAUCACCCAUGUGGGAGAAGGUGCGUUAAAGU [Design 3] (Eterna round: R96, puzzle: Exclusion NG 2)		23.4	21.7	apparent KD of MS2 coat protein [2]: 17.4 nM
UUAAUGUGAGGAUAUCAGGUGUGCUAGCGUACUGGUACAUCUGAGAAGGCACAUGAGGAUCACCCAUGUUUCUU [JL-ex4-3.23 Brourd mod] (puzzle: Exclusion 4)	26.7			
GCCAGAGCAGGAUAUUCAGUAUCACACAUGAGGAUCACCCAUGUCCAGCGAAAGCUGGAGGGAGAAGGGCUCUGGC [Fiskers Ex 5 - 13] (puzzle: Exclusion 5)	108			apparent KD of MS2 coat protein [3]: 40.8 nM; apparent KD of MS2 coat protein [4]: 298 nM
CGUGACUCAGGAUAUGUAUUAUAUCACAUGAGGAUCACCCAUGUCCAGCGAAAGCUGGAGGCAGAAGGGAGUCACG [Fiskers Ex 5 - 47] (puzzle: Exclusion 5)	87.6			apparent KD of MS2 coat protein [3]: 41.4 nM; apparent KD of MS2 coat protein [4]: 106 nM
UUUGUUUAUGUGAGGAUAUACUGUUUGUAUUGAUUGUAGAAGGUACAUGAGGAUCACCCAUGUUUUGUAUUUAU [JR_BME4_Sub035] (puzzle: Brourd's mod of Exclusion 4)	17.7			
CCGACGUGAGGAUAUCCAUCUGGAUCAGACAAGAUCCUGAUGGAGAAGGCACAUGAGGAUCACCCAUGUUACGG [Mat - Exclusion 4 - Eli Mod - D59] (Eterna round: R97, puzzle: Exclusion 4)		738	412	
AAAACACAUGAGGAUCACCCAUGUGAGGAUAUGUUCAUUGUGAGCAAACUUAUGAUGAACAGAAGGCACAUAAA [JR_Exclusion1_Sub017] (puzzle: Exclusion 1)	38.9			
AAACAGCAAGGAUAUACGGGCAGUGCUUAUCAUAUCAUACAACAUGAGGAUCACCCAUGUAGAAGGUGCAACAA [Ex2 #1] (Eterna round: R97, puzzle: Exclusion 2)		108	39.1	
UAUUAGCAAGCCAAUGGGUACAUGAGGAUCACCCAUGUGCUCGUCUUAUAAGGUACUGUGACGAAAGUCACGGUACC [mod--Eli10] (Eterna round: R97, puzzle: Sensor, turn-off variant 1)		16.7	17.7	
GUACUGACAGGAUAUACAUGAGGAUCACCCAUGUGCCCUUAAAGAUGCAAAGCAUCAAGUAGAAGGGUCUGUAC [Omei Ex3 Model Bachelor's Dilema v21] (Eterna round: R97, puzzle: Exclusion 3)		53	40.5	
CCUUAAAUUGUAAGGAUAUUAAAGCUGCUGAGUUAUAAGAAGGUACAUGAGGAUCACCCAUGUUCGGCAGGGUC [Qulexeri] (puzzle: Brourd's mod of Exclusion 4)	17.1			
UUUCAUCAUGUAGGAUAUGUGUGGCGAAGCUAUACAGAAGGACAUGAGGAUCACCCAUGUUCUUGCGUCUGCGUACAGAUGCAA [14th something] (Eterna round: R96, puzzle: Exclusion NG 1)		348	43.3	apparent KD of MS2 coat protein [2]: 33.1 nM
CGCUGUUGAGGAUAUGGGCGUGGGUACAUGAGGAUCACCCAUGUGUUGUCGCGCGUGGGUCUAGAAGGCGGCGGUG [-29.1, -27.2 kcal, 16% A] (Eterna round: R97, puzzle: Exclusion 5)		12.1	13.8	
UACAUACGUCGAUCGAAAGACAUGAGGAUCACCCAUGUACGAUGUCAACGUCAAAUCCAAGUAUUUUGCUCUCGUCA [Eternabot (L2) Solution 32] (Eterna round: R97, puzzle: Sensor, turn-off variant 1)		15.6	16.1	
CAUCCACAUGAGGAUCACCCAUGUGAGGAUAUGAUACUAUGUACUUCGGUACAUAGUAUCAGAAGGCACAGGUG [Ex1-3: 59] (puzzle: Exclusion 1)	111			
ACAUGAGGAUCACCCAUGUAAACAUAAUGGCUCAUGUAGAGUCAGGAUAUGCGUGGCUAACAAUCGCAGAAGGGACAAGACUGG [Deportation 29 - Jieux - Exclusion NG 3] (Eterna round: R96, puzzle: Exclusion NG 3)		22.1	24.5	apparent KD of MS2 coat protein [2]: 20.2 nM

Sequence	apparent KD of MS2 coat protein [1] [nM]	apparent KD of MS2 coat protein (input ligand: FMN 200 uM) [nM]	apparent KD of MS2 coat protein (input ligand: none) [nM]	other results
GUAUUUUGAGGAUAUACAUGAGGAUCACCCAUGUGUCGUAGCGCCAGCCUUAAUACGUGUAGAAGGCAGAAUGU [Eternabot (L1) Solution 75] (Eterna round: R97, puzzle: Exclusion 3)		20	34	
UGUAUUAUAGGAUAUCACAACCUGGACAUGAGGAUCACCCAUGUGGUUGCAUGCUGUCGAUGAGAAGGAUAGGGCG [Eternabot (L1) Solution 43] (Eterna round: R97, puzzle: Exclusion 5)		22.8	21.9	
AGUACUGACACGUUGGUGUUAGUACAAUAAGCUUGUGACACAUGAGGAUCACCCAUGUCCUCAUAAGCUCGUCUUAU [salish99_TOv2_r2_094] (puzzle: Sensor v3, turn-off variant 2)	1080			apparent KD of MS2 coat protein [3]: 22 nM; apparent KD of MS2 coat protein [4]: 20.7 nM
AUAUAGAUAGUCAGGAUAUACUAGUGAUAACAGUAGUAGAAGGGACAUGAGGAUCACCCAUGUAGAUACUGCAC [Brourd's EX4 #2] (Eterna round: R97, puzzle: Brourd's mod of Exclusion 4)		22.2	21.2	
UUUAAUGGAAUUAAGAUCACAUGAGGAUCACCCAUGUAUAUAUAGGAUAUCAGCUCGAUUAGAGCUGAGAAGGAUAUAUACAUA [ExNG3/6-B1] (Eterna round: R96, puzzle: Exclusion NG 3)		31.6	91.6	apparent KD of MS2 coat protein [2]: 199 nM
CGUCUGUAAGGAUAUGGUUGCAUCAACAUGAGGAUCACCCAUGUAACUUGGGACUAGUGAUUAGAAGGUACGAACG [EX5 #59] (Eterna round: R97, puzzle: Exclusion 5)		218	255	
CUGGUCCGAGGAUAUAUUAUGUGAUACAUGAGGAUCACCCAUGUUAUAUGAUGGAUGUUAGUAGAAGGCGGACUAC [salish99_ex5_r3_001] (puzzle: Exclusion 5)	69.9			apparent KD of MS2 coat protein [3]: 102 nM; apparent KD of MS2 coat protein [4]: 101 nM
AUGUGAUUGGCUCUGAGACAUGAGGAUCACCCAUGUGGAGCGCAGGAUAUCCGAACCGUGAAGGCGGAGAAGGGCGUCGUGGUA [Zasorequer] (Eterna round: R96, puzzle: Exclusion NG 3)		39.6	26	apparent KD of MS2 coat protein [2]: 20.5 nM
UGCAAGCUUUAAAGAUCCUACAUGAGGAUCACCCAUGUGCUCGUCUUAUAACGUACUGUGACGAAAGUCACGGUACG [JL TOV1 3.96] (Eterna round: R97, puzzle: Sensor, turn-off variant 1)		324	315	
UAAAGUCAAGGAUAUGGAAGUCCAAACAUGAGGAUCACCCAUGUAAACACAUUGGGAAGCCCAGAAGGUGGCCGUA [Eternabot (L2) Solution 31] (Eterna round: R97, puzzle: Exclusion 5)		76.4	204	
GAGUUAACAUGAGGAAUAUACAUGAGGAUCACCCAUGUUAACAAAUUUUUUGCUCGUCUUAUAACAACAAUUAACUC [Alarm 4 - Jieux - Sensor, turn-off variant 1] (Eterna round: R97, puzzle: Sensor, turn-off variant 1)		434	206	
GUAAACGAUGAGGAUAUAUGAUAUCAAAGCAUCAUAGAAGGCAUCACAUGAGGAUCACCCAUGUGAUCUUCUUG [Mat - Exclusion 6 - JL Mod - D30] (Eterna round: R97, puzzle: Exclusion 6)		135	31.3	
UCAUGGAAGCAGGAUAUGCUUGUUUAAUUGUUUGCAGAAGGGCUAACAUGAGGAUCACCCAUGUAAGAGGUCUA [JR_E6_Sub063] (puzzle: Exclusion 6)	35.3			
ACUAGGCGAGGAUAUACAUGCUUAACGCAGGAAAAGCUGCGACAUGAGGAUCACCCAUGUAGAAGGCGCAAAUA [Xege] (puzzle: Exclusion 2)	15.4			
GAGGAGCAAGGAUAUACGAGGAUAUGGUAGGUUGGAGAGUGACAUGAGGAUCACCCAUGUAGAAGGUGCGAGGG [JR_Exclu2_Sub098] (puzzle: Exclusion 2)	55.5			
UCUGGUCGGAAGGAUAUGGUCGGGUCAAAUCGGCCAGAAGGUCUGACAUGAGGAUCACCCAUGUGAGUCCAAAG [Esceus] (puzzle: Exclusion 6)	21.6			apparent KD of MS2 coat protein [3]: 51.7 nM; apparent KD of MS2 coat protein [4]: 20.8 nM
GUGAAACAUGAGGAUCACCCAUGUCAGGAUAUGAUACUAUGUACUUCGGUACAUAGUAUCAGAAGGGACAGUGA [Ex1-3: 3] (puzzle: Exclusion 1)	74.4			
